In paper PMC4499191:

Key:
[1] = target: Nck1 (Nck1-GFP, GST-Nck1 constructs) SH2 domain (UniProt P16333); experiment: GST-Nck SH2 pull-down from lysate; settings: reference: wild type
[2] = target: T1, GST-Nck SH2, P16333; experiment: GST pull-down, anti-HA immunoblot quantified by ImageJ; settings: chain shown with the change; 293T cells transiently transfected with Lck and HA-tagged TSAd constructs; lane 7
T1 chain: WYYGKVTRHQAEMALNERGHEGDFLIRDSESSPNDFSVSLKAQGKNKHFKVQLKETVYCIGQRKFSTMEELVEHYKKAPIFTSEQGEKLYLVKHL

## TSAd (T cell specific adaptor protein) (from UniProt Q9NP31) Y280,305F
[1]; sites Y280,Y305
  binding against the reference: lost

## TSAd (T cell specific adaptor protein) (from UniProt Q9NP31) Y280F
[1]; sites Y280
  binding against the reference: weaker

B1: HA-tagged TSAd WT co-expressed with Lck in 293T cells (tyrosine phosphorylated), Q9NP31-1 Y280F; Y290F; Y305F (protein)
chain: MEFPLAQICPQGSHEAPIPTFSTFQITDMTRRSCQNLGYTAASPQAPEAASNTGNAERAEEVPGEGSLFLQAETRAWFQKTQAHWLLQHGAAPAWFHGFITRREAERLLEPKPQGCYLVRFSESAVTFVLTYRSRTCCRHFLLAQLRDGRHVVLGEDSAHARLQDLLLHYTAHPLSPYGETLTEPLARQTPEPAGLSLRTEESNFGSKSQDPNPQYSPIIKQGQAPVPMQKEGAGEKEPSQLLRPKPPIPAKPQLPPEVYTIPVPRHRPAPRPKPSNPIFNEPDEPIAFFAMGRGSPGEAPSNIFVEVEDEGLPATLGHPVLRKSWSRPVPGGQNTGGSQLHSENSVIGQGPPLPHQPPPAWRHTLPHNLSRQVLQDRGQAWLPLGPPQ
[2]
  ratio to parent: -0
